What was measured:
[1] = target: T1, pTT5hIgG1-S5 fusion protein (hepatitis B virus (HBV subtype B)); test: ELISA, fusion protein coated at 1 µg/mL, antibody at 1 µg/ml
T1 construct: also called S5 (Loop2-Cter); Loop2-Cter

[2] = target: T2, pTT5hIgG1-S4 fusion protein (hepatitis B virus (HBV subtype B)); test: as above
T2 construct: also called S4 (Cter); Cter

B1: 125smIgG2 (Fc fusion)
chain: QLQLVESGGGLVQAGGSLRLSCAASGGTISAYAMGWFRQAPGKDREFVAGISWTTSSAYYTDSVKGRFTISRDFAKNTVYLQMNSLKPEDTAVYYCNDRVSDTVGFGSWGQGTQVTVSSPRVPITQNPCPPLKECPPCAAPDLLGGPSVFIFPPKIKDVLMISLSPMVTCVVVDVSEDDPDVQISWFVNNVEVHTAQTQTHREDYNSTLRVVSALPIQHQDWMSGKEFKCKVNNRALPSPIEKTISKPRGPVRAPQVYVLPPPAEEMTKKEFSLTCMITGFLPAEIAVDWTSNGRTEQNYKNTATVLDSDGSYFMYSKLRVQKSTWERGSLFACSVVHEGLHNHLTTKTISRSLGK
binding result [1]: binds | binding result [2]: binds
